± gives the uncertainty stated by the source.
Assay: self-splicing fitness, log relative to wild type (ln ratio); higher = more splicing; Tetrahymena group I intron in knt gene, E. coli kanamycin selection, DiMSum; sequences stand for … in CUCUCU…GGAGGGAAAAGUUAUCAGGCAUGCACCUGGUAGCUAGUCUUUAAACCAAUAGAUUGCAUCGGUUUAAAAGGCAAGACCGUCAAAUUGCGGGAAAGGGGUCAACAGCCGUUCAGUACCAAGUCUCAGGGGAAACUUUGAGAUGGCCUUGCAAAGGGUAUGGUAAUAAGCUGACGGACAUGGUCCUAACCACGCAGCCAAGUCCUAAGUCAACAGAUCUUCUGUUGAUAUGGAUGCAGUUCACAGACUAAAUGUCGGUCGGGGAAGAUGUAUUCUUCUCAUAAGAUAUAGUCGGACCUCUCCUUAAUGGGAGCUAGCGGAUGAAGUGAUGCAACACUGGAGCCGCUGGGAACUAAUUUGUAUGCGAAAGUAUAUUGAUUAGUUUUGGAGUACUCGUGGUCG
Outline: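 Colonies from six replicate transformations of E. coli BL21(DE3) were pooled and amplicon-sequenced on an Illumina HiSeq 2500. The library placed an intron with all eight P1ex-region nucleotides randomised inside the knt kanamycin-resistance gene on pET-22b(+), and cells grew overnight at 37°C or 30°C on LB agar with or without 25 μg/mL kanamycin (plus 100 μg/mL carbenicillin, 50 μM IPTG, 0.2% rhamnose). Fitness is the DiMSum error-weighted combination of wild-type-normalised replicate fold changes, kanamycin versus none.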

Sequence	self-splicing fitness (ln) (30 °C)	self-splicing fitness (ln) (37 °C)
UCUAAGCAAUAUUACGGAUC	-3.37 ± 0.37	-3.24 ± 0.37
UCUAAGCAAUAUUACGGGGA	-1.76 ± 0.11	-0.821 ± 0.12
UCUAAGCAAUAUUACGGUAG	-2.09 ± 0.11	-0.881 ± 0.11
UCUAAGCAAUAUUACGUACC		-1.04 ± 0.47
UCUAAGCAAUAUUACGUAGC	-2.23 ± 0.19	-1.25 ± 0.2
UCUAAGCAAUAUUACGUAUG	-1.95 ± 0.089	-1.6 ± 0.11
UCUAAGCAAUAUUACGUGAC	-2.88 ± 0.23	-2.95 ± 0.28
UCUAAGCAAUAUUACGUGAU	-4.27 ± 0.22	-2.69 ± 0.18
UCUAAGCAAUAUUACGUGCG	-0.493 ± 0.1	-0.581 ± 0.15
UCUAAGCAAUAUUACGUGGU	-2.45 ± 0.12	-2 ± 0.14
UCUAAGCAAUAUUACGUUAC	-2.8 ± 0.18	-2.09 ± 0.26
UCUCAGCAAUAUUACGAAAC	-2.16 ± 0.26	-2.29 ± 0.5
UCUCAGCAAUAUUACGAAGA	-1.98 ± 0.15	-1.21 ± 0.15
UCUCAGCAAUAUUACGACUU	-1.63 ± 0.073	-1.75 ± 0.11
UCUCAGCAAUAUUACGAGGC		-1.54 ± 0.36
UCUCAGCAAUAUUACGCCCU	-2.5 ± 0.35	-2 ± 0.44
UCUCAGCAAUAUUACGCGAA	-2.12 ± 0.17	-1.85 ± 0.21
UCUCAGCAAUAUUACGCUCA		-1.48 ± 0.43
UCUCAGCAAUAUUACGCUGC	-3.83 ± 0.21	-2.06 ± 0.17
UCUCAGCAAUAUUACGCUUG	-3.17 ± 0.16	-3.32 ± 0.33
UCUCAGCAAUAUUACGCUUU	-3.09 ± 0.3	-2.22 ± 0.31
UCUCAGCAAUAUUACGGCAA	-2.86 ± 0.25	-2.44 ± 0.17
UCUCAGCAAUAUUACGGGGG	-3.53 ± 0.27	-2.02 ± 0.2
UCUCAGCAAUAUUACGGUAA	-2.11 ± 0.14	-1.02 ± 0.12
UCUCAGCAAUAUUACGGUCU	-3.23 ± 0.2	-1.74 ± 0.15
UCUCAGCAAUAUUACGUCAA	-3.21 ± 0.27	-2.35 ± 0.21
UCUCAGCAAUAUUACGUCAC	-3.75 ± 0.19	-2.55 ± 0.17

Sequence	self-splicing fitness (ln) (30 °C)	self-splicing fitness (ln) (37 °C)
UCUCAGCAAUAUUACGUCCA	-2.72 ± 0.16	-1.35 ± 0.2
UCUCAGCAAUAUUACGUCGC	-2.22 ± 0.23	-2.47 ± 0.33
UCUCAGCAAUAUUACGUGCA	-0.751 ± 0.065	-0.0852 ± 0.071
UCUCAGCAAUAUUACGUGCU	-4.22 ± 0.23	-2.61 ± 0.2
UCUCAGCAAUAUUACGUGGC	-3.61 ± 0.31	-2.55 ± 0.28
UCUCAGCAAUAUUACGUGUC	-3.41 ± 0.14	-3.2 ± 0.17
UCUCAGCAAUAUUACGUUCG	-3.46 ± 0.2	-2.28 ± 0.25
UCUCAGCAAUAUUACGUUGA	-2.9 ± 0.2	-2.93 ± 0.24
UCUCAGCAAUAUUACGUUGU	-3.71 ± 0.21	-3.39 ± 0.21
UCUGAGCAAUAUUACGAACA	-3.18 ± 0.34	-3.46 ± 0.35
UCUGAGCAAUAUUACGAGAU	-3.79 ± 0.37	-2.48 ± 0.3
UCUGAGCAAUAUUACGAGUU	-2.13 ± 0.25	
UCUGAGCAAUAUUACGAUAA		-2.05 ± 0.43
UCUGAGCAAUAUUACGAUUA	-1.85 ± 0.17	-1.49 ± 0.21
UCUGAGCAAUAUUACGCUAC	-3.66 ± 0.3	-3.09 ± 0.47
UCUGAGCAAUAUUACGCUCG	-3.7 ± 0.37	-0.349 ± 0.23
UCUGAGCAAUAUUACGCUCU	-2.96 ± 0.46	
UCUGAGCAAUAUUACGGAAU	-3.33 ± 0.34	-1.88 ± 0.27
UCUGAGCAAUAUUACGGGAC	-2.86 ± 0.4	-2.37 ± 0.23
UCUGAGCAAUAUUACGGUCG	-4.19 ± 0.33	-2.67 ± 0.28
UCUGAGCAAUAUUACGUAAA	-3.29 ± 0.19	-1.69 ± 0.18
UCUGAGCAAUAUUACGUAGA	-0.966 ± 0.1	-0.205 ± 0.14
UCUGAGCAAUAUUACGUAUC	-3.62 ± 0.25	-1.69 ± 0.25
UCUGAGCAAUAUUACGUGGG	-2.78 ± 0.14	-0.918 ± 0.11
UCUUAGCAAUAUUACGAACU	-2.7 ± 0.36	-1.84 ± 0.25
UCUUAGCAAUAUUACGAAGA	-3.02 ± 0.49	-2.64 ± 0.38
UCUUAGCAAUAUUACGAAUG	-2.87 ± 0.43	-2.01 ± 0.38

Sequence	self-splicing fitness (ln) (30 °C)	self-splicing fitness (ln) (37 °C)
UCUUAGCAAUAUUACGAGAC	-2.23 ± 0.25	
UCUUAGCAAUAUUACGAGUA	-0.787 ± 0.26	-1.19 ± 0.27
UCUUAGCAAUAUUACGAUGC	-2.66 ± 0.3	
UCUUAGCAAUAUUACGAUUG	-2.74 ± 0.22	-1.23 ± 0.18
UCUUAGCAAUAUUACGCCUC		-2.31 ± 0.45
UCUUAGCAAUAUUACGCGUC	-4.03 ± 0.33	
UCUUAGCAAUAUUACGCUAU	-4.16 ± 0.25	-2.03 ± 0.18
UCUUAGCAAUAUUACGGCUA	-2.85 ± 0.41	-2.34 ± 0.42
UCUUAGCAAUAUUACGGCUG	-2.71 ± 0.28	0.118 ± 0.24
UCUUAGCAAUAUUACGUAAA	-3.58 ± 0.29	-2.38 ± 0.25
UCUUAGCAAUAUUACGUAGU	-2.27 ± 0.13	-1.35 ± 0.14
UCUUAGCAAUAUUACGUCUG	-2.67 ± 0.22	-2.95 ± 0.37
UCUUAGCAAUAUUACGUCUU	-3.21 ± 0.32	-3 ± 0.27
UCUUAGCAAUAUUACGUGAA	-1.9 ± 0.2	-2.82 ± 0.43
UCUUAGCAAUAUUACGUUCC	-3.4 ± 0.3	
UGAAAGCAAUAUUACGAAAA	-2.53 ± 0.23	-1.14 ± 0.16
UGAAAGCAAUAUUACGAAGA	-2.23 ± 0.3	-0.283 ± 0.19
UGAAAGCAAUAUUACGACCG	-0.0402 ± 0.16	0.0392 ± 0.2
UGAAAGCAAUAUUACGACGC	-2.04 ± 0.19	0.0256 ± 0.17
UGAAAGCAAUAUUACGAGAC		-1.65 ± 0.38
UGAAAGCAAUAUUACGAUCG	-0.144 ± 0.15	0.0927 ± 0.17
UGAAAGCAAUAUUACGCAUG	-0.902 ± 0.079	-0.484 ± 0.091
UGAAAGCAAUAUUACGCGAC	-2.33 ± 0.42	-2.08 ± 0.38
UGAAAGCAAUAUUACGCGAG	-1.63 ± 0.11	-0.0143 ± 0.1
UGAAAGCAAUAUUACGCUCU	-2.48 ± 0.17	-1.37 ± 0.18
UGAAAGCAAUAUUACGGAAC	-2.58 ± 0.22	-0.53 ± 0.25

Source: the supplement of paper PMC7877785
